From patent US20050260207A1 (published 2005)

Biological target: recombinant human cathepsin B (human, UniProt P07858 80-333)
Assay: Western blot of recombinant human cathepsin B, goat anti-human IgG-HRP as secondary antibody
Text: A: polyacrylamide gel electrophoresis of recombinant human cathepsin B (1) and of standards (2); B: Western blot—cathepsin B (1) stained with chimeric 2A2 antibody. Goat anti-human antibody (IgG) conjugated with horseradish peroxidase was used as a secondary antibody. As the substrate 0.05% diaminobenzidine (DAB) and 0.01% of H₂O₂ in 0.05M Tris/HCl buffer, pH 7.5 were used.

B1: chimeric 2A2 antibody, expressed in Chinese hamster ovary (CHO) cells (antibody, V domains shown)
VH: QVQLQQSGAELVRSGASIKLSCTASGFNIKDYYMHWVKQRPEQGLEWIGWIDPENGDTEYAPKFRGKATMTADTSSKTAYLQLSSLTSEDTAVYYCNARRHGYYEMDYWGQGTSVTVSS
VL: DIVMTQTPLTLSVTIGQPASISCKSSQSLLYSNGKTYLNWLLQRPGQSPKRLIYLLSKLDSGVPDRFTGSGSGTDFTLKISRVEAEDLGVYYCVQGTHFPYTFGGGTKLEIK
notes: A secretion leader was used for expression and is not part of the mature protein; also called chimeric antibody 2A2; 2A2 chimeric antibody; not shown: human IgG1 heavy chain constant region (human Cgamma1 region from pUC/hIgG1); human kappa light chain constant region (human Ckappa gene from pUC/hCK)
B1: binds.
